The values that follow come from publication PMC3866193.

Assay [1] deals with EGFP-GluA2 ATD fusion protein. Kind of assay: AUC; fluorescence-detected sedimentation velocity (FDS-SV), dilution series of labeled protein (Figure 3); 50,000 rpm, 20°C; 20 mM Na phosphate pH 7.5, 150 mM NaCl, 1 mM EDTA, 0.1 mg/mL BSA carrier; sw isotherm fitted with a monomer-dimer model; dimer to monomers.
In assay [2] the target is Alexa Fluor 568-labeled GluA2 amino terminal domain. Kind of assay: FRET or BRET; kinetic FRET in a spectrofluorometer, 20°C, excitation 495 nm, emission 603 nm; 50 nM donor-labeled and 50 nM AF568-labeled GluA2 ATD pre-equilibrated (30 min DL488, 60 min FAM), then 1 µM unlabeled GluA2 ATD added; decay fitted with exponential functions. (In BRET a luciferase serves as donor, and the signal depends on an acceptor being close.)
Alexa Fluor 568-labeled GluA2 amino terminal domain, sequence (P19491 whole entry, the tested form may be a part): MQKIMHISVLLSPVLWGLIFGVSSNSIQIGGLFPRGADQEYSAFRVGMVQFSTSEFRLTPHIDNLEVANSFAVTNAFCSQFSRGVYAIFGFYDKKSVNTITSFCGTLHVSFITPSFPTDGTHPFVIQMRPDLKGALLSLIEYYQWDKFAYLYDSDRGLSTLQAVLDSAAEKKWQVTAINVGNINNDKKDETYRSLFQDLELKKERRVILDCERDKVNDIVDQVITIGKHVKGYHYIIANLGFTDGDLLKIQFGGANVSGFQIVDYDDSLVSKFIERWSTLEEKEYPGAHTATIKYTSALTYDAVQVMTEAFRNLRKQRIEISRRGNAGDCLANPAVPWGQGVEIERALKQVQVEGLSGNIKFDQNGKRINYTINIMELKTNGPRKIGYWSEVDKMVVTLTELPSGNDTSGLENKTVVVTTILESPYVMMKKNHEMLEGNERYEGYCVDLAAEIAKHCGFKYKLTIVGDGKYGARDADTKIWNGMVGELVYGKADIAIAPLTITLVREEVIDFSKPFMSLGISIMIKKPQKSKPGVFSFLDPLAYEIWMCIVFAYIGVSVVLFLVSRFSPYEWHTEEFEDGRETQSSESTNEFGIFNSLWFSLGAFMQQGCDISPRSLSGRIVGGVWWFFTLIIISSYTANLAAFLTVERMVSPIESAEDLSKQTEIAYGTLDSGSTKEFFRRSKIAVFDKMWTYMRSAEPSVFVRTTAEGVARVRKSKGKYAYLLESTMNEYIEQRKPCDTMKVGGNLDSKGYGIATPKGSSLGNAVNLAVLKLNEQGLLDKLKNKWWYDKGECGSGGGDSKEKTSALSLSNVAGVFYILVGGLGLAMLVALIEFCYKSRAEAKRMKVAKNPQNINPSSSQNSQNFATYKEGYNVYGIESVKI

B1: EGFP-GluA2 ATD fusion protein (domain or fragment)
chain: NSIQIGGLFPRGADQEYSAFRVGMVQFSTSEFRLTPHIDNLEVANSFAVTNAFCSQFSRGVYAIFGFYDKKSVNTITSFCGTLHVSFITPSFPTDGTHPFVIQMRPDLKGALLSLIEYYQWDKFAYLYDSDRGLSTLQAVLDSAAEKKWQVTAINVGNINNDKKDETYRSLFQDLELKKERRVILDCERDKVNDIVDQVITIGKHVKGYHYIIANLGFTDGDLLKIQFGGANVSGFQIVDYDDSLVSKFIERWSTLEEKEYPGAHTATIKYTSALTYDAVQVMTEAFRNLRKQRIEISRRGNAGDCLANPAVPWGQGVEIERALKQVQVEGLSGNIKFDQNGKRINYTINIMELKTNGPRKIGYWSEVDKMVVTLTELPS
modifications: not checked
The Kd is the equilibrium constant for the complex coming apart. High values mean weaker binding, low ones tighter binding. As usually defined, the stoichiometry N is the number of molecules, sites or subunits per partner or assembly. For B1, in assay [1], the dissociation constant Kd turned out to be 25.4 nM and the stoichiometry N turned out to be 2. Also, in assay [2], the half life of the donor/acceptor heterodimer (single-exponential decay) is 3.27 min.
